Assay results from PMC11026473.

Target: myc-Xbra (UniProt P24781)
Assay: co-immunoprecipitation (IP: Flag, WB: Myc), band intensity quantified
Settings: Xenopus embryos injected with flag-smad1 constructs and myc-xbra; parent: est. 1.0; read off a plot

UniProt P24781, sequence (P24781 whole entry): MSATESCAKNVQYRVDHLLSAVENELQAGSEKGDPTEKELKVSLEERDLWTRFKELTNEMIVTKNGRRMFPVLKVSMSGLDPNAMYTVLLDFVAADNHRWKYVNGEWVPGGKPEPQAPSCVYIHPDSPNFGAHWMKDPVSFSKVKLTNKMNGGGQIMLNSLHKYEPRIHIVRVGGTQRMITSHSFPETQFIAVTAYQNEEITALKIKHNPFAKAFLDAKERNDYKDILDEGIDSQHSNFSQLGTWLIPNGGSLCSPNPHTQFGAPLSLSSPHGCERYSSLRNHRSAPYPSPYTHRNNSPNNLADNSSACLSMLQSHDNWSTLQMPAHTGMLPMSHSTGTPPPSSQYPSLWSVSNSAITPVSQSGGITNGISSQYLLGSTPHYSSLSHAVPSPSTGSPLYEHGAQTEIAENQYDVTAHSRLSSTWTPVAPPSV

Substance	ratio to parent
flag-Smad1 (WT) (from UniProt Q15797) S187A; S196A; S206A; S214A; C-terminal SSXS to DDXD (4SA3SD)	0.65
flag-Smad1 (WT) (from UniProt Q15797) S187D; S196D; S206D; S214D; C-terminal SSXS to DDXD (4SD3SD)	4.1
